Measured values taken from patent US20210047432A1 (DIACCURATE, published 2021).
Changes are numbered by the printed parent chain. Names may count otherwise.

T1: human FcγRIIB (human, UniProt P31994 43-310)
T1 construct: whole, on cells; also called hFcγRIIB
T1 sequence (looked up): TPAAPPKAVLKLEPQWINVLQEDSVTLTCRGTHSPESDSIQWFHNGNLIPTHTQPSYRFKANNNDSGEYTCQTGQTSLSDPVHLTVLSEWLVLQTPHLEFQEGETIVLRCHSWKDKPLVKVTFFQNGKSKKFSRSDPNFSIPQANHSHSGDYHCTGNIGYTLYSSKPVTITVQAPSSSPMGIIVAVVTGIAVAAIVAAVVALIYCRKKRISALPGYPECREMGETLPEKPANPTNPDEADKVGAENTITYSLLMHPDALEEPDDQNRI

B1: humanized antibody #2A (antibody, V domains shown)
VH: QVQLVQSGAEVKKPGASVKVSCKASGYTFTNYWIHWVRRAPGQGLEWIGNIDPSDTRTHYNQKFKDRATLTVDKSTSTAYMELSSLRSEDTAVYYCARQTLYYEALDYWGQGTLVTVSS
VL: EIVMTQSPATLSVSPGERATLSCKASQDVSTAVAWYQEKPGQAPRLLIYWASTRHTGIPARFSGSRSGTEYTLTISSLQSEDFAVYYCQQDYSTPPTFGGGTKVEIK
notes: CDR-grafted 14G9; version A keeps Arg H39 and Glu L38; also called Ab #2A
B2: humanized antibody #2B1 (mutations L234A & L235E) (antibody, human IgG1, kappa)
heavy: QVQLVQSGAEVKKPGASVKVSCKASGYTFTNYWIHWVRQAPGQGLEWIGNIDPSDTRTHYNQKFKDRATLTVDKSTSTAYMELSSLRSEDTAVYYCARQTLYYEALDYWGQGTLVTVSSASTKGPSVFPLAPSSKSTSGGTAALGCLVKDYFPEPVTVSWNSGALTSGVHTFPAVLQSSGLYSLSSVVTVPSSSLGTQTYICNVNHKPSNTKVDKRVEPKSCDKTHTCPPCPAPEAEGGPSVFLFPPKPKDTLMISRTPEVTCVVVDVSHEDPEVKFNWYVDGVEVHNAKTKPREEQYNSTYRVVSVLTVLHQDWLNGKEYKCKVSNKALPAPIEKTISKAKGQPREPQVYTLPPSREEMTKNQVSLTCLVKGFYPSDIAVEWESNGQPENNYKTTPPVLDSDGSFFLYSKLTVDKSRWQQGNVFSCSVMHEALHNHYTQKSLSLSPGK
light: EIVMTQSPATLSVSPGERATLSCKASQDVSTAVAWYQQKPGQAPRLLIYWASTRHTGIPARFSGSRSGTEYTLTISSLQSEDFAVYYCQQDYSTPPTFGGGTKVEIKRTVAAPSVFIFPPSDEQLKSGTASVVCLLNNFYPREAKVQWKVDNALQSGNSQESVTEQDSKDSTYSLSSTLTLSKADYEKHKVYACEVTHQGLSSPVTKSFNRGEC
notes: #2B with L234A and L235E in the heavy chain constant region; also called Ab #2B1; copies: 2 + 2
B3: human FcγRIIA (H131) (receptor, UniProt P12318 34-317, looked up)
chain: QAAAPPKAVLKLEPPWINVLQEDSVTLTCQGARSPESDSIQWFHNGNLIPTHTQPSYRFKANNNDSGEYTCQTGQTSLSDPVHLTVLSEWLVLQTPHLEFQEGETIMLRCHSWKDKPLVKVTFFQNGKSQKFSHLDPTFSIPQANHSHSGDYHCTGNIGYTLFSSKPVTITVQVPSMGSSSPMGIIVAVVIATAVAAIVAAVVALIYCRKKRISANSTDPVKAAQFEPPGRQMIAIRKRQLEETNNDYETADGGYMTLNPRAPTDDDKNIYLTLPPNDHVNSNN
notes: whole, on cells; Allelic variant with His at 131 (mature numbering as printed)
B4: human FcγRIIIB(NA1) (receptor, UniProt O75015 17-200, looked up)
chain: GMRTEDLPKAVVFLEPQWYRVLEKDSVTLKCQGAYSPEDNSTQWFHNENLISSQASSYFIDAATVDDSGEYRCQTNLSTLSDPVQLEVHVGWLLLQAPRWVFKEEDPIHLRCHSWKNTALHKVTYLQNGKDRKYFHHNSDFHIPKATLKDSGSYFCRGLVGSKNVSSETVNITITQGLAVSTIS
notes: whole, on cells
B5: human FcγRIIIB(NA2) (receptor, UniProt O75015 17-200, looked up)
chain: B4 chain with R20S, N49S, D66N, V90I
notes: whole, on cells
B6: human FcγRIIA(R131) (receptor, UniProt P12318 34-317, looked up)
chain: B3 chain with H134R
notes: whole, on cells; Allelic variant with Arg at 131 (so in the source)
B7: human FcγRIIIB(SH) (receptor, UniProt O75015 17-200, looked up)
chain: B4 chain with R20S, N49S, A62D, D66N, V90I
notes: whole, on cells

What was measured:
[1] = target: T2, recombinant human sPLA2-GIB (mature secreted group IB pancreatic phospholipase A2) (human, UniProt P04054 23-148); experiment: competitive ELISA: constant antibody premixed with dilutions of soluble antigen, free antibody caught on antigen-coated plate
T2 construct: also called sPLA2-IB; PLA2-GIB mature form
T2 sequence (P04054 23-148): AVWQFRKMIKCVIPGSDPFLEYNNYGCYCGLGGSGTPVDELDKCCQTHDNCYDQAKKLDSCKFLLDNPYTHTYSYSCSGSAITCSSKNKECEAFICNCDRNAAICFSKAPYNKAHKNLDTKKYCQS
Protocol: (§1) Binding affinities of the humanized antibodies to pro-sPLA2-GIB and sPLA2-GIB were measured by plate-based competition immunoassay. For the competition ELISA, briefly, constant amounts of antibody at different levels were premixed with serial dilutions of antigen protein, human sPLA2-GIB or pro-sPLA2-GIB, ranging from 0 to 10 μg/ml, and incubated for two hours at room temperature to reach pseudo-binding equilibrium between the antibody and antigen. These solutions were then transferred to 96-well sPLA2-GIB or pro-sPLA2-GIB pre-coated plates to allow the free-antibody in the mixtures to bind to plate-coated sPLA2-GIB or pro-sPLA2-GIB. The plates were typically coated with 30 to 100 ng of human sPLA2-GIB or pro-sPLA2-GIB protein in PBS solution overnight at 4° C. followed by BSA nonspecific blocking. After washing off excess antibody in solution, plate-bound antibodies were detected with an HRP-conjugated goat anti-mouse IgG or IgA polyclonal antibody reagent and developed using colorimetric substrate. The dependency of the signals on the concentrations of antigen in solution was analyzed with a 4-parameter fit analysis using Prism™ software (Graph Pad) and reported as IC50.
(§2) The respective binding affinities of the humanized antibodies to human pro-sPLA2-GIB and human sPLA2-GIB were measured by plate-based competition immunoassay. Briefly, constant amounts of antibody at different levels were premixed with serial dilutions of antigen proteins to reach pseudo-binding equilibrium between the antibody and antigen. These solutions were then transferred to antigen pre-coated plates to allow the free-antibody in the mixtures to bind to plate-coated sPLA2-GIB or pro-sPLA2-GIB. Plate-bound antibodies were detected with an HRP-conjugated polyclonal antibody. Data were fitted with a 4PL logistic non-linear regression model and the relative IC50 values were estimated from the model (Table 4).

[2] = target: T3, recombinant human pro-sPLA2-GIB (human, UniProt P04054 16-148); experiment: as above
T3 construct: also called pro-sPLA2-IB; proPLA2-GIB
T3 sequence (P04054 16-148): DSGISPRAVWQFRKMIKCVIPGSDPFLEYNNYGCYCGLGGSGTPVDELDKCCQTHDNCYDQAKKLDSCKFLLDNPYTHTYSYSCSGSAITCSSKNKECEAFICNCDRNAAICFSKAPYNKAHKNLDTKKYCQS
Protocol: as §1, §2

[3] = target: T2, recombinant human sPLA2-GIB (mature …); experiment: SPR (BIAcore 2000), antibody captured, antigen in solution
Protocol: (§3) The affinity constants (KD) of the pro-sPLA2-GIB and sPLA2-GIB binding to the #2B, #2B1 and #2B2 antibodies were determined by surface kinetics on a real-time biosensor surface plasmon resonance assay (BIAcore™). More specifically, the affinity of the antibodies for human pro-sPLA2-IB and sPLA2-IB was measured using a BIAcore® 2000. The antibody was captured on an anti-mouse IgG surface and exposed to various concentrations of recombinant pro-sPLA2-IB and sPLA2-IB protein. Kinetic analysis using BIAevaluation™ software was performed to obtain the association and dissociation rate constants.
as §3, with “to” for “to the #2B,”, “#2B2” for “#2B2 antibodies”, “(BIAcore™).” for “(BIAcore™). More specifically, the affinity of the antibodies for human pro-sPLA2-IB and sPLA2-IB was measured using a BIAcore® 2000.”, “constants (Table 7).” for “constants.”

[4] = target: T3, recombinant human pro-sPLA2-GIB; experiment: as above
Protocol: as §3
as §3, with “to” for “to the #2B,”, “#2B2” for “#2B2 antibodies”, “(BIAcore™).” for “(BIAcore™). More specifically, the affinity of the antibodies for human pro-sPLA2-IB and sPLA2-IB was measured using a BIAcore® 2000.”, “constants (Table 7).” for “constants.”

[5] = target: T4, human FcγRI (human, UniProt P12314 16-374); experiment: flow cytometry, monomeric IgG on CHO cells expressing the receptor
T4 construct: whole, on cells; also called hFcγRI
T4 sequence (P12314 16-374): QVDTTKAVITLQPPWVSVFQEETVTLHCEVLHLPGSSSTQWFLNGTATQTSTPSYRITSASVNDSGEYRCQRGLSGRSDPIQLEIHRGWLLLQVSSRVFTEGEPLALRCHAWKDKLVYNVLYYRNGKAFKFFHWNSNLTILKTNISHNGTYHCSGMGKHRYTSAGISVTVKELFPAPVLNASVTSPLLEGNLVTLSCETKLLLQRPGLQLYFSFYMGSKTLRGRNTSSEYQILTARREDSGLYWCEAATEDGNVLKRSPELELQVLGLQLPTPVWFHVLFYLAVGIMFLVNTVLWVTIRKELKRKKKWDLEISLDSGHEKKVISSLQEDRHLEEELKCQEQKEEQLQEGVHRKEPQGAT
Protocol: (§4) Monomeric IgG binding was tested by incubating the #2B, #2B1 and #2B2 antibodies (100 ng/mL) with 1×10⁵ CHO cells stably expressing human FcγRs for 30 min on ice. The cells were then washed, detached, fixed, and analyzed by flow cytometry (FACSCalibur; BD Biosciences).
(§5) The binding of monomeric #2B, #2B1 and #2B2 to human FcγRs was tested by flow cytometry by incubating the mAbs with CHO cells stably expressing human FcγRI, FcγRIIA (H131), FcγRIIA(R131), FcγRIIB, FcγRIIIA(F176), FcγRIIIA(V176), FcγRIIIB(NA1), FcγRIIIB(NA2), and FcγRIIIB(SH), (REF P. Bruhns). As presented in FIG. 9, #2B is binding to hFcγRI and hFcγRIIIA(V176) only, whereas no monomeric binding of #2B1 and #2B2 to all tested hFcγRs was observed. Antibody-antigen immune complex was tested by first incubating the mAb with the antigen and then, incubating the immune complexes formed with CHO cells stably expressing human FcγRs. The immune complexe of #2B is binding to all tested hFcγRs, except hFcγRIIB (FIG. 10). Weak binding is observed for immune complex of #2B1 to hFcγRIIIA(V176) (data not shown), whereas no immune complex binding of #2B2 to any tested hFcγRs (data not shown).

[6] = target: B3; experiment: as above
Protocol: as §4, §5

[7] = target: B6; experiment: as above
Protocol: as §4, §5

[8] = target: T1, human FcγRIIB; experiment: as above
Protocol: as §4, §5

[9] = target: T5, human FcγRIIIA(F176) (human, UniProt P08637 17-254); experiment: as above
T5 construct: whole, on cells
T5 sequence (P08637 17-254): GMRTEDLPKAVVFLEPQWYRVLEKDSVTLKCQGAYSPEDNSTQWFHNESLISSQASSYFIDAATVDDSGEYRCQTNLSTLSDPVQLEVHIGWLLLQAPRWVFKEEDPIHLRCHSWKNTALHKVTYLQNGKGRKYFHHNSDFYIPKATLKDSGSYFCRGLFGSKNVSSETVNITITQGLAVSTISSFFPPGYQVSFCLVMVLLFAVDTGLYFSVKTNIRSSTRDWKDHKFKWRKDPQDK
Protocol: as §4, §5

[10] = target: T6, human FcγRIIIA(V176) (human, UniProt P08637 17-254); experiment: as above
T6 construct: whole, on cells; also called hFcγRIIIA(V176)
T6 sequence (P08637 17-254 F176V limits assumed): as the sequence (P08637 17-254) above, with F160V counted along it
Protocol: as §4, §5

[11] = target: B4; experiment: as above
Protocol: as §4, §5

[12] = target: B5; experiment: as above
Protocol: as §4, §5

[13] = target: B7; experiment: as above
Protocol: as §4, §5

[14] = target: immune complex of #2B2 with sPLA2-GIB (human, UniProt P04054 23-148); experiment: flow cytometry, antibody-antigen immune complex on CHO cells expressing the receptor
immune complex of #2B2 with sPLA2-GIB, sequence (P04054 23-148, one chain of several): as the sequence (P04054 23-148) above
Protocol: Antibody-antigen immune complex were generated by co-incubation of 10 µg/ml of humanized antibodies and 5 μg/ml of sPLA2-GIB for 30 min at 37° C. Immune complexes were then incubated with 1×10⁵ CHO cells stably expressing human FcγRs for 30 min on ice. The cells were then washed, detached, fixed, and analyzed by flow cytometry (FACSCalibur; BD Biosciences).
as §5

B1 showed an IC50 [1] of 1.9 nM and an IC50 [2] of 216 nM.

B2 gave a Kd [3] of 0.729 nM, a koff [3] of 0.00203 s⁻¹ and a kon [3] of 2.78e+06 M⁻¹ s⁻¹. The t½ [3] was 5.7 min, the Kd [4] was 853 nM and the koff [4] was 0.155 s⁻¹. The kon [4] was 181000 M⁻¹ s⁻¹, the t½ [4] was 0.074 min and the binding result [5] was “no binding (tested: 100 ng/mL)”. B2: no binding (tested: 100 ng/mL) [6]; no binding (tested: 100 ng/mL) [7]; no binding (tested: 100 ng/mL) [8]. B2: no binding (tested: 100 ng/mL) [9]; no binding (tested: 100 ng/mL) [10]; no binding (tested: 100 ng/mL) [11]. B2: no binding (tested: 100 ng/mL) [12]; no binding (tested: 100 ng/mL) [13].

B3: no binding [14].

B4: no binding [14].

B5: no binding [14].

B6: no binding [14].

B7: no binding [14].
